From PMC9482650, “Quantitative fragmentomics allow affinity mapping of interactomes” (Nature Communications, 2022)

Assays:
Assay in all cases: holdup assay
Design in all cases: key: below the threshold = too weak to quantify, mostly under pKd 3.1 to 4
APBA3_1, O96018 = target: T1, APBA3_1, O96018
T1 sequence (O96018 389-490, limits assumed, looked up): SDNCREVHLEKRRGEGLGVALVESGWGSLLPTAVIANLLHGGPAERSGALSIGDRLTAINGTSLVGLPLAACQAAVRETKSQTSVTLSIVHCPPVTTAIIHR

ARHGEF11, O15085 = target: T2, ARHGEF11, O15085
T2 sequence (O15085 42-136, limits assumed, looked up): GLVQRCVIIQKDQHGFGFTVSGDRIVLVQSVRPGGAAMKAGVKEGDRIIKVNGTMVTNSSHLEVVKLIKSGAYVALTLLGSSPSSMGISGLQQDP

DFNB31_1, Q9P202 = target: T3, DFNB31_1, Q9P202
T3 sequence (Q9P202 135-233, limits assumed, looked up): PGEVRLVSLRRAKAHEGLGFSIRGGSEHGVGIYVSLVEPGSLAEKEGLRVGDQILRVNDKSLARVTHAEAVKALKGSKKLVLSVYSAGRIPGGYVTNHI

DLG3_1, Q92796 = target: T4, DLG3_1, Q92796
T4 sequence (Q92796 125-227, limits assumed, looked up): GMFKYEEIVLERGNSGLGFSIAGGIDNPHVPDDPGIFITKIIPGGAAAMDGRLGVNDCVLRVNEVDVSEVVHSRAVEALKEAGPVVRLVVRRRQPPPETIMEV

DLG4_2, P78352 = target: DLG4_2, P78352
Chain of DLG4_2, P78352 (P78352 155-259): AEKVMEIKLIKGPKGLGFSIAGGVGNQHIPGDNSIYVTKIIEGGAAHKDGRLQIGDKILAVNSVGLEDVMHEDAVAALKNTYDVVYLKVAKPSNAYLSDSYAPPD

FRMPD3, Q5JV73 = target: FRMPD3, Q5JV73
Chain of FRMPD3, Q5JV73 (Q5JV73 12-100): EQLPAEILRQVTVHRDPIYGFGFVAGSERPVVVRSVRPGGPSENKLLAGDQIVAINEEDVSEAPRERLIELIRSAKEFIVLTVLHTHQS

GRID2IP_2, A4D2P6 = target: GRID2IP_2, A4D2P6
Chain of GRID2IP_2, A4D2P6 (A4D2P6 272-370): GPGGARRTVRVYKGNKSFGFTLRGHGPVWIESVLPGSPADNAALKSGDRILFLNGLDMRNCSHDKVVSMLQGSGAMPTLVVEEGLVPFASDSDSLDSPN

GRIP1_4, Q9Y3R0 = target: T5, GRIP1_4, Q9Y3R0
T5 sequence (Q9Y3R0 467-571, limits assumed, looked up): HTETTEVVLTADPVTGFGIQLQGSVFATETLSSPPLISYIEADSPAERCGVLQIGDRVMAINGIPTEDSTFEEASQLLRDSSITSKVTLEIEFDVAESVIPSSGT

GRIP2_4, Q9C0E4 = target: GRIP2_4, Q9C0E4
Chain of GRIP2_4, Q9C0E4 (Q9C0E4 446-548): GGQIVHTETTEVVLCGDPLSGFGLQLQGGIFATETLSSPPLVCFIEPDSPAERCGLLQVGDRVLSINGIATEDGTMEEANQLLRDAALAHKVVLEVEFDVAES

GRIP2_6, Q9C0E4 = target: GRIP2_6, Q9C0E4
Chain of GRIP2_6, Q9C0E4 (Q9C0E4 648-740): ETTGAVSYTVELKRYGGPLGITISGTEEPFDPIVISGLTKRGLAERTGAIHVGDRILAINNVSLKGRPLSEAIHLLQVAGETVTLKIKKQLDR

HTRA3, P83110 = target: T6, HTRA3, P83110
T6 sequence (P83110 354-453, limits assumed, looked up): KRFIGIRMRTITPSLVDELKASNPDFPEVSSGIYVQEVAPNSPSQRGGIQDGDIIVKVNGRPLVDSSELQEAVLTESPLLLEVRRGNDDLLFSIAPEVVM

IL16_1, Q14005 = target: IL16_1, Q14005
Chain of IL16_1, Q14005 (Q14005 210-306): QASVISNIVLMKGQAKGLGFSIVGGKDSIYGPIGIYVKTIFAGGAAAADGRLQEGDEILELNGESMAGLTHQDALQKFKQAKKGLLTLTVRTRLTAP

IL16_4, Q14005 = target: IL16_4, Q14005
Chain of IL16_4, Q14005 (Q14005 1229-1329): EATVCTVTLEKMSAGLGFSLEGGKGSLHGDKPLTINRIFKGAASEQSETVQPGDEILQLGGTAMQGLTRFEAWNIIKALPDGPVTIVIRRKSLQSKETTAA

LNX1_2, Q8TBB1 = target: LNX1_2, Q8TBB1
Chain of LNX1_2, Q8TBB1 (Q8TBB1 371-470): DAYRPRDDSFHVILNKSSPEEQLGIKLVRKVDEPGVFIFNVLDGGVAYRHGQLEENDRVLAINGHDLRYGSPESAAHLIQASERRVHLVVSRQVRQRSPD

LNX2_3, Q8N448 = target: T7, LNX2_3, Q8N448
T7 sequence (Q8N448 463-564, limits assumed, looked up): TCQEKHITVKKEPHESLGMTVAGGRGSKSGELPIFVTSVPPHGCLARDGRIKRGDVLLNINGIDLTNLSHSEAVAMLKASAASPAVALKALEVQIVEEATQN

LRRC7, Q96NW7 = target: T8, LRRC7, Q96NW7
T8 sequence (Q96NW7 1440-1537, limits assumed, looked up): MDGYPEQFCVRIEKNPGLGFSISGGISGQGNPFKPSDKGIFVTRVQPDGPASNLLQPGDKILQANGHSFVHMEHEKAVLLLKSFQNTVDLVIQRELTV

MAGI1_1, Q96QZ7 = target: MAGI1_1, Q96QZ7
Chain of MAGI1_1, Q96QZ7 (Q96QZ7 1-106): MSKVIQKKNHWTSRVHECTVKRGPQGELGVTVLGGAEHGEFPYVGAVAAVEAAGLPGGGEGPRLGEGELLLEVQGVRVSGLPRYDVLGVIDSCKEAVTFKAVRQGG

MAGI3_2, Q5TCQ9 = target: MAGI3_2, Q5TCQ9
Chain of MAGI3_2, Q5TCQ9 (Q5TCQ9 398-503): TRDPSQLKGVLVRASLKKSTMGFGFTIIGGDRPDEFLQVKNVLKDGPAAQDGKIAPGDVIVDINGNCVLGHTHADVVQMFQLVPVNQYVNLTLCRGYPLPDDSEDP

MAST2, Q6P0Q8 = target: MAST2, Q6P0Q8
Chain of MAST2, Q6P0Q8 (Q6P0Q8 1099-1202): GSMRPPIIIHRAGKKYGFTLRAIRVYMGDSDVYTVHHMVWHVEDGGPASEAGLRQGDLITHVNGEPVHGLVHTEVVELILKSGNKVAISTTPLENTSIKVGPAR

NHERF4_4, Q86UT5 = target: NHERF4_4, Q86UT5
Chain of NHERF4_4, Q86UT5 (Q86UT5 464-550): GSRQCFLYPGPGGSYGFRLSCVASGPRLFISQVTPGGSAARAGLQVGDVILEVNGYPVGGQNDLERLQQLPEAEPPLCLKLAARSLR

PARD3_3, Q8TEW0 = target: PARD3_3, Q8TEW0
Chain of PARD3_3, Q8TEW0 (Q8TEW0 582-685): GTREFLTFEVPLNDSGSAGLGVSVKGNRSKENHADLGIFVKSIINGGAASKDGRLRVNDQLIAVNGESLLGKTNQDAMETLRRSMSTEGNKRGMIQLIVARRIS

PDZD2_2, O15018 = target: T9, PDZD2_2, O15018
T9 sequence (O15018 329-429, limits assumed, looked up): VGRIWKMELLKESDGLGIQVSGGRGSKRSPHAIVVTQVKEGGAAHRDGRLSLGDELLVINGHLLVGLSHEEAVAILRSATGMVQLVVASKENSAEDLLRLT

PTPN3, P26045 = target: PTPN3, P26045
Chain of PTPN3, P26045 (P26045 505-587): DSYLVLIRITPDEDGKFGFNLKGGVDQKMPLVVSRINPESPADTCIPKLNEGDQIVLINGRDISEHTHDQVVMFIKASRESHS

SCRIB_1, Q14160 = target: SCRIB_1, Q14160
Chain of SCRIB_1, Q14160 (Q14160 718-814): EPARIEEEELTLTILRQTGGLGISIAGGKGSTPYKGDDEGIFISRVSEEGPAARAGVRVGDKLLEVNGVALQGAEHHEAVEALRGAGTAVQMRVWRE

SNX27, Q96L92 = target: SNX27, Q96L92
SYNJ2BP, P57105 = target: T10, SYNJ2BP, P57105
T10 sequence (P57105 8-110, limits assumed, looked up): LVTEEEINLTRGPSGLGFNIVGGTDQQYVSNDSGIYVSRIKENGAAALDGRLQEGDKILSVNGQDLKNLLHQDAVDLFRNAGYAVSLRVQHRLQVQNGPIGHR

TJP2_1, Q9UDY2 = target: TJP2_1, Q9UDY2
Chain of TJP2_1, Q9UDY2 (Q9UDY2 24-128): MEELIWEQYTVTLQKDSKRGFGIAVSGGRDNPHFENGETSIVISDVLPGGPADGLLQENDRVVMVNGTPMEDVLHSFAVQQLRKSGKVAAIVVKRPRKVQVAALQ

[1] = plain residues with an end cap or a label only (N-terminal biotin on a linker: ttds)
[2] = plain residues with an end cap or a label only (N-terminal biotin on a linker: none)

## SGSRPSATVV [HPV73-E6, Q82005]
APBA3_1, O96018; [1]
  pKd: below the threshold
ARHGEF11, O15085; [1]
  pKd: 3.98
DFNB31_1, Q9P202; [1]
  pKd: below the threshold
DLG3_1, Q92796; [1]
  pKd: below the threshold
DLG4_2, P78352; [1]
  pKd: 4.14
FRMPD3, Q5JV73; [1]
  pKd: below the threshold
GRID2IP_2, A4D2P6; [1]
  pKd: below the threshold
GRIP1_4, Q9Y3R0; [1]
  pKd: below the threshold
GRIP2_4, Q9C0E4; [1]
  pKd: 3.55
GRIP2_6, Q9C0E4; [1]
  pKd: below the threshold
HTRA3, P83110; [1]
  pKd: 3.7
IL16_1, Q14005; [1]
  pKd: below the threshold
IL16_4, Q14005; [1]
  pKd: below the threshold
LNX1_2, Q8TBB1; [1]
  pKd: 4.06
LNX2_3, Q8N448; [1]
  pKd: below the threshold
LRRC7, Q96NW7; [1]
  pKd: 3.54
MAGI1_1, Q96QZ7; [1]
  pKd: below the threshold
MAGI3_2, Q5TCQ9; [1]
  pKd: 4.91
MAST2, Q6P0Q8; [1]
  pKd: 3.88
NHERF4_4, Q86UT5; [1]
  pKd: below the threshold
PARD3_3, Q8TEW0; [1]
  pKd: 3.76
PDZD2_2, O15018; [1]
  pKd: 4.11
PTPN3, P26045; [1]
  pKd: below the threshold
SCRIB_1, Q14160; [1]
  pKd: below the threshold
SNX27, Q96L92; [1]
  pKd: below the threshold
SYNJ2BP, P57105; [1]
  pKd: 3.71
TJP2_1, Q9UDY2; [1]
  pKd: 3.77

## NLNSSRVPDLLV [SARS-CoV2-E, P0DTC4]
APBA3_1, O96018; [2]
  pKd: below the threshold
ARHGEF11, O15085; [2]
  pKd: below the threshold
DFNB31_1, Q9P202; [2]
  pKd: below the threshold
DLG3_1, Q92796; [2]
  pKd: below the threshold
DLG4_2, P78352; [2]
  pKd: below the threshold
FRMPD3, Q5JV73; [2]
  pKd: below the threshold
GRID2IP_2, A4D2P6; [2]
  pKd: below the threshold
GRIP1_4, Q9Y3R0; [2]
  pKd: below the threshold
GRIP2_4, Q9C0E4; [2]
  pKd: below the threshold
GRIP2_6, Q9C0E4; [2]
  pKd: below the threshold
HTRA3, P83110; [2]
  pKd: 3.63
IL16_1, Q14005; [2]
  pKd: below the threshold
IL16_4, Q14005; [2]
  pKd: below the threshold
LNX1_2, Q8TBB1; [2]
  pKd: 3.81
LNX2_3, Q8N448; [2]
  pKd: below the threshold
LRRC7, Q96NW7; [2]
  pKd: below the threshold
MAGI1_1, Q96QZ7; [2]
  pKd: below the threshold
MAGI3_2, Q5TCQ9; [2]
  pKd: below the threshold
MAST2, Q6P0Q8; [2]
  pKd: below the threshold
NHERF4_4, Q86UT5; [2]
  pKd: below the threshold
PARD3_3, Q8TEW0; [2]
  pKd: 3.82
PDZD2_2, O15018; [2]
  pKd: below the threshold
PTPN3, P26045; [2]
  pKd: below the threshold
SCRIB_1, Q14160; [2]
  pKd: below the threshold
SNX27, Q96L92; [2]
  pKd: below the threshold
SYNJ2BP, P57105; [2]
  pKd: below the threshold
TJP2_1, Q9UDY2; [2]
  pKd: below the threshold

## VDFPPKESSL [ACVR2A, P27037]
APBA3_1, O96018; [1]
  pKd: below the threshold
ARHGEF11, O15085; [1]
  pKd: 4.17
DFNB31_1, Q9P202; [1]
  pKd: below the threshold
DLG3_1, Q92796; [1]
  pKd: below the threshold
DLG4_2, P78352; [1]
  pKd: 3.33
FRMPD3, Q5JV73; [1]
  pKd: below the threshold
GRID2IP_2, A4D2P6; [1]
  pKd: 3.48
GRIP1_4, Q9Y3R0; [1]
  pKd: below the threshold
GRIP2_4, Q9C0E4; [1]
  pKd: below the threshold
GRIP2_6, Q9C0E4; [1]
  pKd: below the threshold
HTRA3, P83110; [1]
  pKd: below the threshold
IL16_1, Q14005; [1]
  pKd: below the threshold
IL16_4, Q14005; [1]
  pKd: below the threshold
LNX1_2, Q8TBB1; [1]
  pKd: below the threshold
LNX2_3, Q8N448; [1]
  pKd: below the threshold
LRRC7, Q96NW7; [1]
  pKd: below the threshold
MAGI1_1, Q96QZ7; [1]
  pKd: below the threshold
MAGI3_2, Q5TCQ9; [1]
  pKd: 3.3
MAST2, Q6P0Q8; [1]
  pKd: 5.05
NHERF4_4, Q86UT5; [1]
  pKd: below the threshold
PARD3_3, Q8TEW0; [1]
  pKd: below the threshold
PDZD2_2, O15018; [1]
  pKd: 3.63
PTPN3, P26045; [1]
  pKd: 4.87
SCRIB_1, Q14160; [1]
  pKd: 3.83
SNX27, Q96L92; [1]
  pKd: 4.38
SYNJ2BP, P57105; [1]
  pKd: 4.53
TJP2_1, Q9UDY2; [1]
  pKd: below the threshold

## PVRVCEETSL [OTULIN, Q96BN8]
APBA3_1, O96018; [1]
  pKd: 3.51
ARHGEF11, O15085; [1]
  pKd: 4.63
DFNB31_1, Q9P202; [1]
  pKd: 4.42
DLG3_1, Q92796; [1]
  pKd: 3.75
DLG4_2, P78352; [1]
  pKd: 4.2
FRMPD3, Q5JV73; [1]
  pKd: 3.81
GRID2IP_2, A4D2P6; [1]
  pKd: 4.75
GRIP1_4, Q9Y3R0; [1]
  pKd: below the threshold
GRIP2_4, Q9C0E4; [1]
  pKd: 3.53
GRIP2_6, Q9C0E4; [1]
  pKd: 3.53
HTRA3, P83110; [1]
  pKd: below the threshold
IL16_1, Q14005; [1]
  pKd: 3.53
IL16_4, Q14005; [1]
  pKd: 3.66
LNX1_2, Q8TBB1; [1]
  pKd: below the threshold
LNX2_3, Q8N448; [1]
  pKd: below the threshold
LRRC7, Q96NW7; [1]
  pKd: below the threshold
MAGI1_1, Q96QZ7; [1]
  pKd: below the threshold
MAGI3_2, Q5TCQ9; [1]
  pKd: 3.71
MAST2, Q6P0Q8; [1]
  pKd: 5.28
NHERF4_4, Q86UT5; [1]
  pKd: below the threshold
PARD3_3, Q8TEW0; [1]
  pKd: 3.59
PDZD2_2, O15018; [1]
  pKd: 3.54
PTPN3, P26045; [1]
  pKd: 5.01
SCRIB_1, Q14160; [1]
  pKd: 5.44
SNX27, Q96L92; [1]
  pKd: 5.58
SYNJ2BP, P57105; [1]
  pKd: 4.74
TJP2_1, Q9UDY2; [1]
  pKd: below the threshold
